Experimental data reported in US7744887B2, “Human antibodies interacting with HIV gp41” (priority 2004, dated 2010).

Experiments:
[1] = tested on: HIV-1 (envelope from strain HXB2); assay: HIV Reporter Particle (HIVRP) assay; type: cell-based; details: envelope from strain HXB2, purified scFvs
[2] = tested on: CXCR4-tropic HIV-1 strain HXB2; type: cell-based; details: for effect on HIV-HXB2 replication: single cycle infectivity assay, FIG. 9
CCR5-tropic strain BaL = type: cell-based, HIV-1
[3] = tested on: dual tropic strain (CCR5 and CXCR4) HIV 89.6; type: cell-based, HIV-1
[4] = tested on: HIV particles pseudotyped with the surface protein of the Vesicular Stomatitis Virus (VSV-G); type: cell-based
IQN17 = assay: ALPHASCREEN D5 IgG/IQN17 binding assay; set-up: species or system HIV-1
5-Helix [5] = target: T1, 5-Helix (Human immunodeficiency virus type 1 group M subtype B, UniProt P04578, C598G/DEL583-596/DEL601-623/N624G); details: Biacore, peptide 5-Helix
From the text: (§1) Affinity of D5 IgG for the hydrophobic pocket of HR1—The affinity of D5 IgG for various peptides was next determined by surface plasmon resonance (Biacore).

IZN17 = assay: Surface plasmon resonance (Biacore), IZN17; type: binding, HIV-1; details: peptide IZN17
From the text: as §1

IZN17-G572D = assay: Surface plasmon resonance (Biacore), IZN17-G572D; type: binding, HIV-1; details: peptide IZN17-G572D
From the text: as §1

IZN17-L565M = assay: Surface plasmon resonance (Biacore), IZN17-L565M; type: binding, HIV-1; details: peptide IZN17-L565M
From the text: as §1

IZN17-Q567R = assay: Surface plasmon resonance (Biacore), IZN17-Q567R; type: binding, HIV-1; details: peptide IZN17-Q567R
From the text: as §1

IQN17-2Pro = assay: Surface plasmon resonance (Biacore), IQN17-2Pro; type: binding, HIV-1; details: peptide IQN17-2Pro
From the text: as §1

5-Helix [6] = target: T1, 5-Helix; details: ALPHASCREEN, FIG. 10
IZN36 = IZN36 (Human immunodeficiency virus type 1 group M subtype B, UniProt P04578); details: ALPHASCREEN, FIG. 10
[7] = target: interaction of biotinylated IZN36 with C34-HA (Human immunodeficiency virus type 1 group M subtype B, UniProt P04578); details: ALPHASCREEN, FIG. 15
HIV strain MN-1 = type: cell-based, HIV-1; details: MN-1, single cycle infectivity assay

B1: B11 scFv: human scFv from phage display, SEQ ID NO:8, VH and VL joined by (G4S)3 linker; binds gp41 HR1 (protein)
scFv: QVQLVQSGAEVKKPGSSVKVSCKASGGTFSSYAISWVRQAPGQGLEWMGGIIPLFDTSNYAQNFQGRITITADKSTSTAYMELSSLRFEDTAIYYCARDNPLLLAMDVWGKGTTVTVSSGGGGSGGGGSGGGGSDIQMTQSPSTLSASIGDRVTITCRASEGIYHWLAWYQQKPGKAPKLLIYKASSLASGAPSRFSGSGSGTDFTLTISSLQPDDFATYYCQQYSNYPLTFGGGTKLEIK
modifications: Homo sapien
[1]
  ability to prevent HIV-1 entry: capable of inhibiting HIV-1 entry
[2]
  effect on HIV-HXB2 replication: displayed anti-viral properties against the HIV—HXB2 strain

B2: D5 IgG: full length human IgG4/kappa carrying D5 VH (SEQ ID NO:4) and VL (SEQ ID NO:6) (antibody, V domains shown)
VH: QVQLVQSGAEVRKPGASVKVSCKASGDTFSSYAISWVRQAPGQGLEWMGGIIPIFGTANYAQKFQGRVTITADESTSTAYMELSSLRSEDTAIYYCARDNPTLLGSDYWGKGTLVTVSS
VL: DIQMTQSPSTLSASIGDRVTITCRASEGIYHWLAWYQQKPGKAPKLLIYKASSLASGAPSRFSGSGSGTDFTLTISSLQPDDFATYYCQQYSNYPLTFGGGTKLEIK
modifications: human IgG4/kappa constant regions; Homo sapien
CCR5-tropic strain BaL; BaL versus HXB2
  fold more sensitive than HXB2: approximately 3 fold
[3]; 89.6 versus HXB2
  fold less susceptible to neutralization than HXB2: approximately 6 fold
[4]
  IC50: Not active
IQN17
  interaction with biotinylated IQN17: evident interaction
5-Helix [5]
  Off: 1.0e−4 1/S
  On: 390000 M⁻¹ s⁻¹
IZN17
  Kd: 0.1 nM
  Off: 5.9e−4 1/S
  On: 6.1e+06 M⁻¹ s⁻¹
IZN17-G572D
  Kd: 550 nM
  Off: 3.0e−3 1/S
  On: 5500 M⁻¹ s⁻¹
IZN17-L565M
  Kd: 0.3 nM
  Off: 8.9e−4 1/S
  On: 3e+06 M⁻¹ s⁻¹
IZN17-Q567R
  Kd: 1.5 nM
  Off: 1.2e−3 1/S
  On: 800000 M⁻¹ s⁻¹
IQN17-2Pro
  Kd: 240 nM
  Off: 2.2e−3 1/S
  On: 9000 M⁻¹ s⁻¹
5-Helix [6]
  interaction with biotinylated 5-Helix: clear interaction
IZN36
  interaction with biotinylated IZN36: clear interaction
[7]
  effect on the interaction of C34-HA with IZN36: prevented the interaction of C34-HA with IZN36

B3: B11 IgG: full length human IgG1/kappa carrying B11 VH (SEQ ID NO:10) and VL (SEQ ID NO:12) (antibody, V domains shown)
VH: QVQLVQSGAEVKKPGSSVKVSCKASGGTFSSYAISWVRQAPGQGLEWMGGIIPLFDTSNYAQNFQGRITITADKSTSTAYMELSSLRFEDTAIYYCARDNPLLLAMDVWGKGTTVTVSS
VL: B2 VL
modifications: human IgG1/kappa constant regions; Homo sapien
[2]; HIV-HXB2, single cycle infectivity assay
  IC50: 290 nM
CCR5-tropic strain BaL; HIV-BaL, single cycle infectivity assay
  IC50: 73 nM
[3]; HIV 89.6, single cycle infectivity assay
  IC50: 943 nM
HIV strain MN-1
  IC50: 244 nM

B4: D5 scFv: human scFv from phage display, SEQ ID NO:2, VH and VL joined by (G4S)3 linker; binds gp41 HR1 hydrophobic pocket (protein)
scFv: QVQLVQSGAEVRKPGASVKVSCKASGDTFSSYAISWVRQAPGQGLEWMGGIIPIFGTANYAQKFQGRVTITADESTSTAYMELSSLRSEDTAIYYCARDNPTLLGSDYWGKGTLVTVSSGGGGSGGGGSGGGGSDIQMTQSPSTLSASIGDRVTITCRASEGIYHWLAWYQQKPGKAPKLLIYKASSLASGAPSRFSGSGSGTDFTLTISSLQPDDFATYYCQQYSNYPLTFGGGTKLEIK
modifications: Homo sapien
[1]
  ability to prevent HIV-1 entry: capable of inhibiting HIV-1 entry
[2]
  effect on HIV-HXB2 replication: inhibited HIV—HXB2 replication
CCR5-tropic strain BaL; single cycle infectivity assay
  effect on HIV-BaL replication: inhibited replication of HIV-BaL
[4]
  prevention of infection by VSV-G pseudotyped particles: Neither D5 nor X5 scFvs prevented infection
